Laboratory results from US20250066503A1, “CELL INJURY INDUCING THERAPEUTIC DRUG FOR USE IN CANCER THERAPY” (CHUGAI SEIYAKU KABUSHIKI KAISHA, priority 2016, published 2025).
Substitutions are numbered along the chain they refer to. Values joined by “and” are separate entries in the source; they are usually repeats but may differ in a detail not shown here. Equal entries are not always repeated.

Molecular target: T1, soluble human CD3 epsilon chain (human, UniProt P07766 23-126)
T1 construct: also called CD3ε
T1 sequence (P07766 23-126 limits assumed): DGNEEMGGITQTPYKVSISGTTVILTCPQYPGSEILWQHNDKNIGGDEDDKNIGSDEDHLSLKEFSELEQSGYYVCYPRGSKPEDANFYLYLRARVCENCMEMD
Test: SPR

B1: TR01H106-E22Hh/none-Hi-Kn010G3/L0011-k0 (antibody, V domains shown)
VH: QVQLVESGGGLVQPGRSLRLSCAASGFTFSNAWMHWVRQAPGKGLEWVAQIKDKSQNYATYPAESVKGRFTISRDDSKNSLYLQMNSLKTEDTAVYYCRYVHYAAGYGVDAWGQGTTVTVSS
VL: DIVMTQSPLSLPVTPGEPASISCRSSQPLVHSNRNTYLHWYQQKPGQAPRLLIYKVSNRFSGVPDRFSGSGSGTDFTLKISRVEAEDVGVYYCGQGTQVPYTFGQGTKLEIKR
notes: one-arm
Binder B1 has a Kd of 100 nM.

B2: TR01H107-E22Hh/none-Hi-Kn010G3/L0011-k0 (antibody, V domains shown)
VH: B1 VH with P62Q
VL: B1 VL
notes: one-arm
Work on B2 yielded a Kd of 69.1 nM.

B3: TR01H108-E22Hh/none-Hi-Kn010G3/L0011-k0 (antibody, V domains shown)
VH: B1 VH with P62T
VL: B1 VL
notes: one-arm
In the case of B3, the Kd is reported as 69.8 nM.

B4: TR01H109-E22Hh/none-Hi-Kn010G3/L0011-k0 (antibody, V domains shown)
VH: B1 VH with P62V
VL: B1 VL
notes: one-arm
In the case of B4, the Kd is reported as 70.6 nM.

B5: TR01H110-E2702GsKsc/none-Hi-E2704sE/L0011-k0 (antibody, V domains shown)
VH: B1 VH with L11V, R19K, P62Y
VL: B1 VL
notes: one-arm
Binder B5 has a Kd of 12.6 nM.

B6: TR01H111-E2702GsKsc/none-Hi-E2704sE/L0011-k0 (antibody, V domains shown)
VH: B1 VH with L11V, R16G, R19K, P62Y, D75A, L81I, A111I
VL: B1 VL
notes: one-arm
With B6 the Kd was 4.91 nM.

B7: TR01H112-E2702GsKsc/none-Hi-E2704sE/L0011-k0 (antibody, V domains shown)
VH: B1 VH with L11V, R16G, T60Q, P62Y, D75A, L81I, A111I
VL: B1 VL
notes: one-arm
Binder B7 has a Kd of 5.12 nM.

B8: TR01H114-E2702GsKsc/none-Hi-E2704sE/L0011-k0 (antibody, V domains shown)
VH: B1 VH with L11V, R16G, T60S, P62Y, D75A, L81I, A111I
VL: B1 VL
notes: one-arm
For B8, the Kd was 4.22 nM.

B9: hCE115HA-E22stHh/none-Hi-stKn010G3/L0000-k0 (antibody, V domains shown)
VH: B1 VH with L11V, D53A, Q56N, P62Y, A104G, G106Y
VL: B1 VL with P28S
notes: one-arm
B9 showed a Kd of 51.7 nM.

B10: hCE115HA-G1dh//-Hi-Kn010G3/L0000-k0 (antibody, V domains shown)
VH: B1 VH with L11V, D53A, Q56N, P62Y, A104G, G106Y
VL: B1 VL with P28S
notes: one-arm
With B10 the Kd was 65 nM.

B11: hCE115HAa-E22Hh/none-Hi-Kn010G3/L0000-k0 (antibody, V domains shown)
VH: B1 VH with L11V, R16G, D53A, Q56N, P62Y, A104G, G106Y
VL: B1 VL with P28S
notes: one-arm
B11 gave a Kd of 108 nM.

B12: hCE115HA-E22Hh/none-Hi-Kn010G3/L0000-k0 (antibody, human IgG1, kappa, L234A L235A, N297A, V domains shown)
VH: B1 VH with L11V, D53A, Q56N, P62Y, A104G, G106Y
VL: B1 VL with P28S
notes: one-arm; also called hCE115HA-E22Hh//-Hi-Kn010G3/L0000-k0
B12 was tested, and the Kd was 143 nM and 124 nM.

B13: CE115HA251-E22Hh//-Hi-Kn010G3/L0000-k0 (antibody, human IgG1, kappa, L234A L235A, N297A, V domains shown)
VH: B1 VH with L11V, D53A, Q56N, P62Y, A104Y, A105Y, G106Y
VL: B1 VL with P28S
notes: one-arm
With B13 the Kd was 22.3 nM.

B14: TR01H015-E22Hh/none-Hi-Kn010G3/L0000-k0 (antibody, human IgG1, kappa, L234A L235A, N297A)
heavy: QVQLVESGGGLVQPGRSLRLSCAASGFTFSNAWMHWVRQAPGKGLEWVAQIKGKSNNYATYYAESVKGRFTISRADSKNSIYLQMNSLKTEDTAVYYCRYVHYSASYGVDIWGQGTTVTVSSASTKGPSVFPLAPSSKSTSGGTAALGCLVKDYFPEPVTVSWNSGALTSGVHTFPAVLQSSGLYSLSSVVTVPSSSLGTQTYICNVNHKPSNTKVDKKVEPKSCDKTHTCPPCPAPEAAGGPSVFLFPPKPKDTLMISRTPEVTCVVVDVSHEDPEVKFNWYVDGVEVHNAKTKPREEQYASTYRVVSVLTVLHQDWLNGKEYKCKVSNKALPAPIEKTISKAKGQPREPQVYTLPPSRCELTKNQVSLSCAVKGFYPSDIAVEWESNGQPENNYKTTPPVLDSDGSFFLVSKLTVDKSRWQQGNVFSCSVMHEALHNHYTQKSLSLSPDYKDDDDK
light: DIVMTQSPLSLPVTPGEPASISCRSSQSLVHSNRNTYLHWYQQKPGQAPRLLIYKVSNRFSGVPDRFSGSGSGTDFTLKISRVEAEDVGVYYCGQGTQVPYTFGQGTKLEIKRTVAAPSVFIFPPSDEQLKSGTASVVCLLNNFYPREAKVQWKVDNALQSGNSQESVTEQDSKDSTYSLSSTLTLSKADYEKHKVYACEVTHQGLSSPVTKSFNRGEC
notes: one-arm
B14 gave a Kd of 61.3 nM.

B15: CE115HA251-E22Hh/L0000-k0/GL4-E22Hk/H0000-E22L (bispecific antibody, human IgG1, kappa, L234A L235A, N297A)
heavy: B14 heavy with L11V, G53A, A75D, I81L, S104Y, A105Y, S106Y, I111A
light: B14 light
chain 1: DIVMTQSPLSLPVTPGEPASISCRSSQSLVHSNRNTYLHWYQQKPGQAPRLLIYKVSNRFSGVPDRFSGSGSGTDFTLKISRVEAEDVGVYYCSQNTHVPPTFGQGTKLEIKSSASTKGPSVFPLAPSSKSTSGGTAALGCLVKDYFPEPVTVSWNSGALTSGVHTFPAVLQSSGLYSLSSVVTVPSSSLGTQTYICNVNHKPSNTKVDKKVEPKSCDKTHTCPPCPAPEAAGGPSVFLFPPKPKDTLMISRTPEVTCVVVDVSHEDPEVKFNWYVDGVEVHNAKTKPREEQYASTYRVVSVLTVLHQDWLNGKEYKCKVSNKALPAPIEKTISKAKGQPREPQVCTLPPSRDELTKNQVSLWCLVKGFYPSDIAVEWESNGQPENNYKTTPPVLDSDGSFFLYSKLTVDKSRWQQGNVFSCSVMHEALHNHYTQKSLSLSPHHHHHHHH
chain 2: QVQLVQSGAEVKKPGASVKVSCKASGYTFTDYEMHWIRQPPGQGLEWIGAIDPKTGDTAYSQKFKGRVTLTADKSTSTAYMELSSLTSEDTAVYYCTRFYSYTYWGQGTLVTVSSASVAAPSVFIFPPSDEQLKSGTASVVCLLNNFYPREAKVQWKVDNALQSGNSQESVTEQDSKDSTYSLSSTLTLSKADYEKHKVYACEVTHQGLSSPVTKSFNRGEC
notes: ERY22 format
B15 gave a Kd of 14.8 nM.

B16: CE115HA236-E22Hh/GLS3108-k0/GL4-E22Hk/H0000-E22L (bispecific antibody, human IgG1, kappa, L234A L235A, N297A)
heavy: B14 heavy with L11V, G53A, A75D, I81L, S104Y, S106Y, D110Q, I111A
light: B14 light with H39S
chain 1: B15 chain 1
chain 2: B15 chain 2
notes: ERY22 format
B16 showed a Kd of 6.95 nM.

B17: TR01H002-E22Hh/GLS3108-k0/GL4-E22Hk/H0000-E22L (bispecific antibody, human IgG1, kappa, L234A L235A, N297A)
heavy: QVQLVESGGGVVQPGRSLRLSCAASGFTFSNAWMHWVRQAPGKGLEWVAQIKAKSNNYKKYYAESVKGRFTISRDDSKNSLYLQMNSLKTEDTAVYYCRYVHYYYYYGVQAWGQGTTVTVSSASTKGPSVFPLAPSSKSTSGGTAALGCLVKDYFPEPVTVSWNSGALTSGVHTFPAVLQSSGLYSLSSVVTVPSSSLGTQTYICNVNHKPSNTKVDKKVEPKSCDKTHTCPPCPAPEAAGGPSVFLFPPKPKDTLMISRTPEVTCVVVDVSHEDPEVKFNWYVDGVEVHNAKTKPREEQYASTYRVVSVLTVLHQDWLNGKEYKCKVSNKALPAPIEKTISKAKGQPREPQVYTLPPSRCELTKNQVSLSCAVKGFYPSDIAVEWESNGQPENNYKTTPPVLDSDGSFFLVSKLTVDKSRWQQGNVFSCSVMHEALHNHYTQKSLSLSPDYKDDDDK
light: B14 light with H39S
chain 1: B15 chain 1
chain 2: B15 chain 2
notes: ERY22 format
For B17, the Kd was 4.78 nM.

B18: TR01H040-E22Hh/none-Hi-Kn010G3/TR01L011-k0 (antibody, V domains shown)
VH: B1 VH with P62Y, D75A, L81I, A104S, G106S
VL: DIVMTQSPLSLPVTPGEPASISCQASESLVHSNRNTYLHWYQQKPGQAPRLLIYKVSNRFRGVPDRFSGSGSGTDFTLKISRVEAEDVGVYYCGQGTQVPYTFGQGTKVEIE
notes: one-arm
B18 was tested, and the Kd was 35.7 nM.

B19: rCE115H-G1dh//-Hi-Kn010G3/L0000-k0 (antibody, V domains shown)
VH: EVQLVETGGSLVQPGKSLKLTCATSGFTFSNAWMHWVRQSPEKQLEWVAQIKAKSNNYATYYAESVKGRFTISRDDSKSNIYLQMNSLKEEDTAVYYCRYVHYGAYYGVDAWGQGTSVTVSS
VL: B1 VL with P28S
notes: one-arm
Binder B19 has a Kd of 57.6 nM.

B20: TR01H082-E22Hh/none-Hi-Kn010G3/TR01L024-k0 (antibody, V domains shown)
VH: B1 VH with P62Y
VL: B18 VL with L29P, Q42L, A48S, R50Q, R61S, G94T, V109L, E112K
notes: one-arm
With B20 the Kd was 47.6 nM.

B21: TR01H040-E22Hh/none-Hi-Kn010G3/TR01L018-k0 (antibody, V domains shown)
VH: B1 VH with P62Y, D75A, L81I, A104S, G106S
VL: B18 VL with L29P, Q42L, A48S, R50Q, R61S, V109L, E112K
notes: one-arm
B21 showed a Kd of 45.1 nM.

B22: TR01H040-E22Hh/none-Hi-Kn010G3/L0000vk1-k0 (antibody, V domains shown)
VH: B1 VH with P62Y, D75A, L81I, A104S, G106S
VL: DIQMTQSPSSLSASVGDRVTITCRSSQSLVHSNRNTYLHWYQQKPGKAPKLLIYKVSNRFSGVPSRFSGSGSGTDFTFTISSLQPEDIATYYCGQGTQVPYTFGQGTKVEIK
notes: one-arm
In the case of B22, the Kd is reported as 46.9 nM.

B23: TR01H040-E22Hh/none-Hi-Kn010G3/TR01L013-k0 (antibody, V domains shown)
VH: B1 VH with P62Y, D75A, L81I, A104S, G106S
VL: B18 VL with Q42L, A48S, R50Q
notes: one-arm
In the case of B23, the Kd is reported as 41.5 nM.

B24: TR01H040-E22Hh/none-Hi-Kn010G3/TR01L012-k0 (antibody, V domains shown)
VH: B1 VH with P62Y, D75A, L81I, A104S, G106S
VL: B18 VL with Q24R, A25S, E27Q, Q42L, A48S, R50Q
notes: one-arm
B24 gave a Kd of 42.2 nM.

B25: TR01H080-E22Hh/none-Hi-Kn010G3/L0000-k0 (antibody, V domains shown)
VH: QVQLVESGGGLVQPGRSLRLSCAASGFTFSNAWMHWVRQAPGKGLEWVAQIKDKSNNYATYYAESVKGRFTISRADSKNSIYLQMNSLKTEDTAVYYCRYVHYAAVRRRLSSYGVDIWGQGTTVTVSS
VL: B1 VL with P28S
notes: one-arm
For B25, the Kd was 3.25 nM.

B26: TR01H079-E22Hh/none-Hi-Kn010G3/L0000-k0 (antibody, V domains shown)
VH: B25 VH with V106A, R107E, R108M, R109V, L110R, S111D
VL: B1 VL with P28S
notes: one-arm
B26 was tested, and the Kd was 50.5 nM.

B27: TR01H015-E22Hh/none-Hi-Kn010G3/TR01L003-k0 (antibody, human IgG1, L234A L235A, N297A)
heavy: B14 heavy
VL: B18 VL with Q24R, A25S, E27Q, R61S
notes: one-arm
Binder B27 has a Kd of 63.4 nM.

B28: TR01H015-E22Hh/none-Hi-Kn010G3/TR01L001-k0 (antibody, human IgG1, L234A L235A, N297A)
heavy: B14 heavy
VL: B18 VL with R61S, V109L, E112K
notes: one-arm
Work on B28 yielded a Kd of 65.6 nM.
